# Test: yeast display, Sf9 membrane polyspecificity reagent, FACS + sequencing; frameworks hold sequencing errors
# Procedure, shortened: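 In a synthetic yeast display library (Saccharomyces cerevisiae BJ5465), nanobody expression was induced with galactose for 36–48 hours. FACS gates were set low and high (top ~1%) using anti-HA fluorescence for expression and streptavidin fluorescence for binding of the Sf9 membrane reagent. Each polyreactivity label is drawn from the gate of origin.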
row,Sequence,polyreactivity (PSR sort gate)
1,QVQLVDSGGGLVQAGGTHRLSCAASGFTFRRNAMGWYRQAPGKERELVAAITYNGGTSYYADSVKGRFSISRDNAKNTVYLQMNSLKPEETAVYYCAAVDSYSPYVSHDNWGQGTKVTVSS,low polyreactivity
2,QVQLVDSGGGLVQPGGSLRLRCAASGGIFLQNAMGWYRQAPGTERELVAAISWSAGSTYYADSVKGRFTISRDNAKNTVYLDMNCLKPEDTAVYYCAAAGSNFTVWYGYYYWGQGTQVTVSS,low polyreactivity
3,QVQLVDSGGGSVQAGGSLRLSCAASGRTFPYYAMGWYRQAPGKERELVAAITIGNTNYADSVKGRFTISRDNAKNTVYLQMNSLKPEDTAVYYCNASHVSHYRARDYWGQGTQVTVSS,low polyreactivity
4,QVQLVDSGGRLLQAGGSLRLSCAASGRTFYYYAKGWYRQAPGKERELVASITSDGDTNYADSVKGRFTISGDNAKNTGYLQMNSLKPEDTAVYYCAAEWQTQGYEYWGQGTQVTVSS,high polyreactivity
5,QVQLVDSGVGLVQAGGSLRLSCAASGRIFDYYAMGWYRQAPGKERELVAAITSGGTTTYYADSVKGRFTISRDNAKNTVYLQMNSLKPEDTAVYYCAASFFGDGYIDLWYKFDYWGQGTQVTVSS,low polyreactivity
6,QVQLVDSVGGLVQAGGSLRLSCAASGFTFWYYAMGWYRQAPGKERELVAAISSGGSTYYADSVKGRFTISRDNAKNTVYLQMNSLKPEDTAVYYCAARIGARGRGGKDRVYYWGQGTQVTVSS,high polyreactivity
7,QVQLVDSVGRLVQAGGSLRLSCAASGSTFVGYAMGWYRHAPGKEREMDADIDSIGGSTYYADSVKGRFTISRDNAKNTVYLQMNILKPEDTAVYYCAARRYDTALVLYDYWGQGTQVTVSS,low polyreactivity
8,QVQLVDSVGVLVQAGGSLRLSCAASGSIFYRNVMGWYRPAPGKERELVATISRGGTTNYADSVKGRFTISRDNAKNTVYLQMNSLKPEDTAVFYCAAPIGDVYVGIGYDSWGQGTQVTVSS,low polyreactivity
9,QVQLVDTGGGLVQAGGSLRLSCAASGLTFQQYAMGWYRQAPRKERELVAAITSDGASTNYADSVKGRFTNSRDNAKNTVYLQMNSLKPEDCAVYYCAAGRRSRQYRYVYWGQGTQVTVSS,high polyreactivity
10,QVQLVEAGGGLVLAGGSLRLSCAASGIIFVSYAMGWSRQAPGKERELVASISWSGGRTYYADSVKARFTISRDNAKNTVYLQMNSLKPEDTAVYFCAAAYRTRSGVRRYPWFNYWGQGTQVTVSS,high polyreactivity
11,QVQLVEAGGGLVQAGGSLRLSCAASGITFGDNAMGCYRQAPGKERELVAAITLSDVDTYADSVKGRFTISRDNAKNTVYLQMNSMKPEDTAVYYCAADYDFFSLYLYDYCGQGTQVTVSS,low polyreactivity
12,QVQLVEAGGGLVQAGGSLRLSCAASGNTLYGNAMGWYLQAPGKERELVAAISWSGGSTSYADSVKGRFTISRDNAENTVYLQMNSLKPEDTAVYYCATQGFYKDYSRYDYWGQGTQVTVSS,low polyreactivity
13,QVQLVEAGGGLVQAGGSLRLSCAASGRTFRYYAMRWYRQATGKERELVAAITTGSSTYYADSVKGRFTISRDNAKNTVYLQMNSLKPEDTAVYYCAADHLYWGLEYESWGQGTQVTVSS,low polyreactivity
14,QVQLVEAGGGLVQAGGSLRLSCAPSGFICYYYGMGWYRQAPGKDREVVASIRSGGSTNYADSVKGRFTISRDNAKNTGYLQMNWLKPEDTAVYNCAASLLNRISNYDYWGQGTQVTVKS,high polyreactivity
15,QVQLVEAGGGLVQAGGSLRLSCATSGGIFPPNAMGWYRQAPGKERELVASISSDGSTNYADSVKGRFTISRDNAKNTFYLQMISLKPEDTAVYFCAADSTTTWARLHVRRYYYWGQGTQVTVSS,low polyreactivity
16,QVQLVEAGGGLVQAGVSLRLSCAASGSIFGYNAMGWYRQAPGKERELVAAISRRGTRTYYADSVKGRFTISRDTAKNTVYLQMNSLKPEDTAVYYCNASPSLDYDYWGQGTQVTVSS,high polyreactivity

row,Sequence,polyreactivity (PSR sort gate)
1,QVQLVEAGLGLVQAGGSLRLSCAASGFIFVANAMVWYRQAPGKERELVAAISFSSTSTRYADSVKGRFTISRDNAKNTVYLQMNSLKPEDTAVYYCAVDLTFSEFDYWGQGTQVTVSS,low polyreactivity
2,QVQLVEAGVGLVQAVGSLRLSCAASGYIFVVNAMGWYRQAPGKERELVASITWSGDNTYYADSVKGRFTISRDNAKNTVYLQMNSLKPEDTAVYYCAATIWIAYRGWYSDYNYWGQGTQVTVSS,low polyreactivity
3,QVQLVEKGGGLVQAGGSLRLSCAPSGGLFSKNAMGCYRQAPGKVRELVAGISSGGTTYYADSVKGRFTISRDNAKNTGYLQMNSLKPEDSAVYYCAVPYYRRLGPLNDSWGQGTQVTVSS,low polyreactivity
4,QVQLVEPGGGLVHAGGSLRLSCAASGRIYYVYAMGWYRQAPGKERELVAGIRSGGSTNYADSVKGRFTISRDNAKNTVYLQMNSLNPEDTAVYYCAVQSYGALSPQLVYRRYDYWGQGTQVTVSS,high polyreactivity
5,QVQLVESAAGLVQAGASLRLSCAPSGRIYRYYAMGWYRQAPGKDRELVAAISSSGGSTYYADSVKGRFSISRDNAKNTVYLQKNSLKPEDTAVYYCAARKASGRFGYWGQGTQVTVSS,high polyreactivity
6,QVQLVESAAGLVQAGGCLRLSCAASGRIFGYYAMGGYRKAPGKERELVAAITSGGGTYYADSVKGRFTNSRDNAKNTVYLQMNSLKPEDTAVYFCAADDYFHDDYCGQGTQVTVSS,high polyreactivity
7,QVQLVESAAGLVQAGGRLRLSCAASGYTFSNYAMGWSRQAPGKERELVAAISRSGGSTYYADSVKGRFTISRDNAKNTVYLQMNSLNPVDTAVYYCAASRSGTYDWGLGTQVTVSS,high polyreactivity
8,QVQLVESAAGLVQAGGSLRLSCAASGRIFRYNTMGWYRQAPGKESELVAAITSGVRTNYADSVKGRFTISRDNAKNTVYLQMNSLKPEDTAVYYCAADPYWFFPNYDSWGQGTQVTVSS,low polyreactivity
9,QVQLVESAAGLVQAGGSLRLSCAASGRISHRNAMGWSRQAPGKERELVAAITSGGSTNYADSVKGRFTISRDNAKNTVYLQMNSLKPEDTAVYYCAARRLPSTWYIYWGQGTQVTVSS,low polyreactivity
10,QVQLVESAAGLVQAGGSLRLSCAASGSTFYRYEMGWYRQAPGKERELVATNTSGGSSTYYADSVKGRFTISRDNAKNTVYLQMNSLKPEDTAVYYCAKVYTYSGVNLSSISTPYGYWGQGTQVTVSS,high polyreactivity
11,QVQLVESAAGLVQAGGSLRLSCAPSGSTFYLYDMGWYRQAPGKEREFVATITSGTSTTYADSVKGRFTISRDNAKNTVYLQMNSLKPEDTAVYYCNATDVGIITVGYGHGGYYWGQGTQVTVSS,low polyreactivity
12,QVQLVESAGALVQAGGSLRLSCAASGPTFSHNAMGWDRQAPGKERELVASIRSGGLTDYADSVKGRFTISRDNAKNTVYLQMTSLKPEDSAVFYCIAEGVWWSTRYDSWGQGTQVTVSS,low polyreactivity
13,QVQLVESAGGIVQAGGSLRLSCAASESIFETYDMGCYRQAPGTERELVAAITLSGGSTYYADSVKGRFTISRDNAKNTVYLQMNSLKPEDTAVYYCAADDSGVKVWEGDYWGQGTQVTVSS,low polyreactivity
14,QVQLVESAGGLVLAGGSLRLSCAASGRIFARNAMGWYRQAAGKEREFVAGITWSGSSTYYADSVKARFTISRDNAKNTVYLQMNSLKPEDTAVYYCAVDNYVGSLRIDHDYWGLGTQVTVSS,low polyreactivity
15,QVQLVESAGGLVQAAGSLRLSCDASGFTTYYNAMGWYRQAPGKERELVAAISSSGGSTNYADSVKGRFTISRDNAKNTVYLQMNSLKPEDTAVYYCAARLYGWYYGGYTRYDYWGQGTQVTVSS,high polyreactivity
16,QVQLVESAGGLVQAGGRLRLSCAASGIIFEQYAMGSYRQAPGKERELVAAISSGCTTYADSVKGRFTISRDNAKNTVYLQMNSLTPEDTAVYYGNADLSWDGPDWSDYEYDYWGQGTQVTVSS,low polyreactivity
